# Values of other authors as cited in patent US11458170B2, “Pharmaceutical composition comprising erythrocytes encapsulating a PLP-dependent enzyme and, a non-phosphate PLP precursor” (ERYTECH PHARMA, priority 2014, dated 2022).
# Assays:
# [1] = in vivo
# [2] = not given; remark: listed apart in the source
Compound,Plasma half-life of free PLP [1],"Plasma activity of the enzyme (24 h after IV injection, immunodeficient mice, determined in vitro without adding PLP)",Half-life in mice (mice),"Treated animals developing anti-rMETase antibodies (IgG, IgM) ([2]; macaques)",Death after anaphylactic shock ([2]; second IV injection 28 days after the first),"Anaphylactic shock after second injection ([2]; second IV injection 28 days after the first, six monkeys)"
"Cc1ncc(COP(=O)(O)O)c(C=O)c1O [PLP, pyridoxal phosphate]",about 15 minutes,,,,,
rMETase: recombinant methioninase produced in Escherichia coli from the Pseudomonas putida gene (Sun et al.),,undetectable,2 h,four out of six,death of one of the two animals,in two monkeys an anaphylactic shock
